The source of these data is patent US20120213794A1 (published 2012).

The target in one experiment is T1, human PCSK9 (human, UniProt Q8NBP7 31-692).
T1 construct: also called hPCSK9
The experiment in a line: Biacore (SPR), IgG2 captured, PCSK9 as analyte. (In SPR one partner is held on a chip, and binding of the other changes the refractive index at the surface.)

The next experiment deals with T2, Rhesus PCSK9 (rhesus, UniProt A8T666 31-692, limits assumed).
T2 construct: also called rhPCSK9
The experiment in a line: Biacore (SPR), IgG2 captured, PCSK9 as analyte.

Another experiment deals with T3, Mouse PCSK9 (mouse, UniProt Q80W65 35-694, limits assumed).
T3 construct: Column head prints 'Mouse 9'; also called Mouse 9; mPCSK9
T3 sequence (Q80W65 35-694 limits assumed): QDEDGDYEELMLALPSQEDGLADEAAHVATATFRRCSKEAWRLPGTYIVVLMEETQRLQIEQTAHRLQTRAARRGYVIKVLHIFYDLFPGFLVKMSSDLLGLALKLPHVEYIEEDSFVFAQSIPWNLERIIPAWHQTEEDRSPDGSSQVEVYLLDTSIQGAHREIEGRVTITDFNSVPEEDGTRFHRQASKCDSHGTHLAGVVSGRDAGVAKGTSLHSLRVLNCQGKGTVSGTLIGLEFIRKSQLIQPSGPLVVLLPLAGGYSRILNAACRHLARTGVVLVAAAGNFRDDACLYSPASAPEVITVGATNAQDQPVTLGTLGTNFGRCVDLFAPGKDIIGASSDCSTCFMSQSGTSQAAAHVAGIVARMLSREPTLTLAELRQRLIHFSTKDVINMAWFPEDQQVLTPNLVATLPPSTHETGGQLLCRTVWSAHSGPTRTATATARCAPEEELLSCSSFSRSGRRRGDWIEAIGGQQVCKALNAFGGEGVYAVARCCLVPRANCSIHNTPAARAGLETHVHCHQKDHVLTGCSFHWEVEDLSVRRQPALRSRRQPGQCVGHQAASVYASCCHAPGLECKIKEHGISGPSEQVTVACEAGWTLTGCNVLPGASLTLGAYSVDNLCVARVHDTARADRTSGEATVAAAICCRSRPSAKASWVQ
As to the kind of experiment: Biacore (SPR), IgG2 format.

T2 sequence (A8T666 31-692 limits assumed): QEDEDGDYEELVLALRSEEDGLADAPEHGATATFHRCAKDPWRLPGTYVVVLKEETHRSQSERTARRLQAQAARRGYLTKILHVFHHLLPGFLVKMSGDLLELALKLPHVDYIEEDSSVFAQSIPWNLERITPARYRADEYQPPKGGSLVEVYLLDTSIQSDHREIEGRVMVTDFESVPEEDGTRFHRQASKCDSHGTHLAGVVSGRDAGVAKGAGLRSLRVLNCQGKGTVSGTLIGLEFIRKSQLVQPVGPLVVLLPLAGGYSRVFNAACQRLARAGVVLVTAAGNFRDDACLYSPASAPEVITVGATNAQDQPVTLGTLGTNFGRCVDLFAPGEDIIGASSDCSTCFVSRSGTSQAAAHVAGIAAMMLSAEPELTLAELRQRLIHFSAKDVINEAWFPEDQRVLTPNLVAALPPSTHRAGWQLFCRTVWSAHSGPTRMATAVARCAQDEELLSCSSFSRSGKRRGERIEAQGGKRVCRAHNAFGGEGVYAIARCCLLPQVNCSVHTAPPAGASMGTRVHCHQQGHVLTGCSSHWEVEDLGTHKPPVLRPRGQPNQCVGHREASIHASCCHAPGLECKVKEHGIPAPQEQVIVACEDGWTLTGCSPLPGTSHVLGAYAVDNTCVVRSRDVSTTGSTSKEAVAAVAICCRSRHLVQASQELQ
T1 sequence (Q8NBP7 31-692 limits assumed): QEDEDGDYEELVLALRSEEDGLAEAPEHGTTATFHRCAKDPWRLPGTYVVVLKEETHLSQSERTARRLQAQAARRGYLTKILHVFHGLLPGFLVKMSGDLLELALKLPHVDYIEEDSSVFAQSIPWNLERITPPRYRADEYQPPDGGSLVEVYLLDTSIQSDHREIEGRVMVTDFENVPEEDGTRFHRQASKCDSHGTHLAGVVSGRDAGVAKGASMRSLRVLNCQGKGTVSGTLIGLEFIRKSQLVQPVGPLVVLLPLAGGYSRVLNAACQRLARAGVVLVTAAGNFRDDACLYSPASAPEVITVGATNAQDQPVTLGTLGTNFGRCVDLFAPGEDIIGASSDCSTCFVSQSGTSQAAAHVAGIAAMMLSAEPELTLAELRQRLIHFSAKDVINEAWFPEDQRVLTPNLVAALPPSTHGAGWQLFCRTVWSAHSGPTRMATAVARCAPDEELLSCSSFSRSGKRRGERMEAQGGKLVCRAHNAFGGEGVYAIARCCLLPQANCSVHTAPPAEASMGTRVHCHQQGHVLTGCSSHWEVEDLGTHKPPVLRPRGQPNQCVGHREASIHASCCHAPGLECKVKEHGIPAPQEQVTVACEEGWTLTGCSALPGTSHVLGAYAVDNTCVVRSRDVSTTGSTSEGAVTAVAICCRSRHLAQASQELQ

B1: AX137 IgG2 (antibody, V domains shown)
VH: EVQLLESGGGLVQPGGSLRLSCKASGYTFSSYGMYWVRQAPGKGLEWIGWIDPGSGGTKYNEKFKGKATISRDNSKNTLYLQMNSLRAEDTAVYYCARERYGYYFDYWGQGTLVTVSS
VL: EIVLTQSPATLSLSPGERATITCRASQYIGSYLNWYQQKPGQAPRLLIYDASNRATGIPARFSGSGSGTDFTLTISSLEPEDFAVYYCQAWDSSPPVVFGGGTKVEIK
The Kd is the concentration at which binding is half-saturated. Take B1: the Kd with human PCSK9 was determined as 9.98 nM; with Rhesus PCSK9 it was 10 nM. The binding result in the experiment with Mouse PCSK9 was “no binding”.
